# Results taken from article PMC3105431.
# Key:
# [1] = molecular target: U2AF65 (human, UniProt P26368 1-475); test: EMSA
# [2] = molecular target: U2AF65;U2AF35 (human;human, UniProt P26368;Q01081 1-475;1-240, |); test: EMSA
# Chain of U2AF65;U2AF35 (P26368 whole entry, chain 1 of 2): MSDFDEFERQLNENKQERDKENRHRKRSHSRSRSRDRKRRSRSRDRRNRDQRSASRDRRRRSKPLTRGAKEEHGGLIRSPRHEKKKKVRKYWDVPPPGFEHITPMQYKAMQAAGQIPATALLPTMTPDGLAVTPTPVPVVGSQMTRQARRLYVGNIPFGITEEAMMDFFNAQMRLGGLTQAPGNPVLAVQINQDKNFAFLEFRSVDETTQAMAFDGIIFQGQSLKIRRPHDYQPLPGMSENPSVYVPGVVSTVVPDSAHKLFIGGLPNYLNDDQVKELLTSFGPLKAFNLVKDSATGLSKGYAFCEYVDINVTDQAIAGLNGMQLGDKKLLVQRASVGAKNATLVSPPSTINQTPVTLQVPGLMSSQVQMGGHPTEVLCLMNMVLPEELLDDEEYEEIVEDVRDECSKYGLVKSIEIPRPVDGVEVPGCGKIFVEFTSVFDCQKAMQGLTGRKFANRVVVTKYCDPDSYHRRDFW
# Chain of U2AF65;U2AF35 (Q01081 whole entry, chain 2 of 2): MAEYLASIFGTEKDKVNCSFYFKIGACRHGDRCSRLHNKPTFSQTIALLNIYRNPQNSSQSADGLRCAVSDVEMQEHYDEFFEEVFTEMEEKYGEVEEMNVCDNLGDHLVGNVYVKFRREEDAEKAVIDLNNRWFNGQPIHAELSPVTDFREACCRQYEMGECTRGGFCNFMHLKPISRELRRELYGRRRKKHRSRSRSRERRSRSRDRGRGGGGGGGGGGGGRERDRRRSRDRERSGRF
# Chain of U2AF65 (P26368 whole entry, one chain of several): as the sequence (P26368 whole entry, chain 1 of 2) above
binder,measurement,setting,value
"GGGAGACAGGCUUACGCAUUCGUCUAUCUUUCGCAUAGUUUGGUCCA (ssRNA) [FECH mutant (PT, E+1 G>U)]",binding result,[1],no binding
same,binding result,[2],no binding
